# T1: Pyruvate orthophosphate dikinase-like PN20674, prey clone aa 64-263 (Oryza sativa, UniProt Q6AVA8 64-263)
# T1 construct: prey; AD fusion; input trait library
# T1 sequence: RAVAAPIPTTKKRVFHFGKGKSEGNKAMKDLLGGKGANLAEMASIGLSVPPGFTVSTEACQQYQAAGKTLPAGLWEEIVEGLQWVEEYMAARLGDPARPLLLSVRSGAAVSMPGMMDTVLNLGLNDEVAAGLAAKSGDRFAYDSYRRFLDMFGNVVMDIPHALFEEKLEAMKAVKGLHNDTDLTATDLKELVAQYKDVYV
# T2: Pyruvate orthophosphate dikinase-like PN20674, prey clone aa 71-298 (Oryza sativa, UniProt Q6AVA8 71-298)
# T2 construct: prey; AD fusion; input trait library
# T2 sequence: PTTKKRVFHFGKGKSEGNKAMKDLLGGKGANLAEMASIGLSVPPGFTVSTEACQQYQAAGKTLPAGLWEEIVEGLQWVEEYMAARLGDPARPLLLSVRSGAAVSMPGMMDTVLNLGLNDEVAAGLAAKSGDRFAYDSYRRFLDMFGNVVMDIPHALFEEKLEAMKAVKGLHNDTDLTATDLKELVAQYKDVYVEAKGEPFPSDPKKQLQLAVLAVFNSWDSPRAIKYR
# T3: Soluble Starch Synthase, prey clone aa 68-270 (Oryza sativa, UniProt A2Y9M4 68-270)
# T3 construct: prey; AD fusion; input trait library; also called OsSSS; PN19701
# T3 sequence: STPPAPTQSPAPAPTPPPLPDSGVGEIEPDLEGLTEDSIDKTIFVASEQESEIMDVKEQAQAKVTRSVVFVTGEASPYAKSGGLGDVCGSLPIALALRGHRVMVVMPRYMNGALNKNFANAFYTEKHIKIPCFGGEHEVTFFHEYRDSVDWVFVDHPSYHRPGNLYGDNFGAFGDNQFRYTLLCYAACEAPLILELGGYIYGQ
# T4: Soluble Starch Synthase, prey clone aa 97-263 (Oryza sativa, UniProt A2Y9M4 97-263)
# T4 construct: prey; AD fusion; output trait library; also called OsSSS; PN19701
# T4 sequence: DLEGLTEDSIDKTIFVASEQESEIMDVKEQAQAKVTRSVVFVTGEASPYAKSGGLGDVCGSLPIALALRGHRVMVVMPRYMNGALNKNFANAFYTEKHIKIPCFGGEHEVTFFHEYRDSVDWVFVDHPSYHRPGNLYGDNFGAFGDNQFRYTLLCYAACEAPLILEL
# T5: O. sativa Putative 14-3-3 Protein, prey clone aa 53-259 (Oryza sativa, UniProt Q06967 53-259)
# T5 construct: prey; AD fusion; input trait library; four clones; also called Os008938-3209; PN20215
# T5 sequence: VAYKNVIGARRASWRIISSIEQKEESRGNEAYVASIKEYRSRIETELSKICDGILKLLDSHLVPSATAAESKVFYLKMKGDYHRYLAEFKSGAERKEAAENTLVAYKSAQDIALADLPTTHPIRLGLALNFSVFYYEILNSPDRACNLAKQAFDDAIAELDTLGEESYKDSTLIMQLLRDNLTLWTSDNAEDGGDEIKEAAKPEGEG
# T6: Elicitor responsive protein, bait fragment aa 23-120 (Oryza sativa, UniProt Q0JBH9 23-120)
# T6 construct: bait; also called OsERP; PN20696
# T6 sequence: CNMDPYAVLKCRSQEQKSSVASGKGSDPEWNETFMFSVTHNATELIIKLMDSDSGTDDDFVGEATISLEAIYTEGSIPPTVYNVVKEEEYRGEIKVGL
# T7: Beta-Expansin EXPB2, prey clone aa 80-207 (Oryza sativa, UniProt O24230 80-207)
# T7 construct: prey; AD fusion; input trait library; also called OsEXPB2; PN19902
# T7 sequence: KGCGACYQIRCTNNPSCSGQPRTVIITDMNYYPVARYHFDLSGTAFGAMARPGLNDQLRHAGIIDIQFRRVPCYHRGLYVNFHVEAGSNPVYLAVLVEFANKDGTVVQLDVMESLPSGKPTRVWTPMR
# T8: Auxin induced protein-like PN24061, prey clone aa 34-236 (Oryza sativa, UniProt A2XLV9 34-236)
# T8 construct: prey; AD fusion; output trait library
# T8 sequence: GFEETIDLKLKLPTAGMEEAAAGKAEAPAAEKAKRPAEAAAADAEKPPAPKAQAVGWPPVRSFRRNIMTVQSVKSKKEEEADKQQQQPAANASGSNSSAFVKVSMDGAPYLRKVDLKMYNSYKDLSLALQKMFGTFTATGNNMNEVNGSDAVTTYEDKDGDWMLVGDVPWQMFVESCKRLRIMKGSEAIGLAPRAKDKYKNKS
# T9: Hypothetical Protein 003118-3674 Similar to Lycopersicon esculentum Calmodulin, bait fragment aa 75-149 (Oryza sativa, UniProt Q84VG0 75-148)
# T9 construct: bait; also called PN20551
# T9 sequence: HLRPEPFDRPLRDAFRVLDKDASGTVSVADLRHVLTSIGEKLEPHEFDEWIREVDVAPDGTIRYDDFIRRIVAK
# T10: Novel Protein PN22154, Similar to A. thaliana Glutamyl Aminopeptidase, prey clone aa 390-562 (Oryza sativa, UniProt Q6Z6L4 390-562)
# T10 construct: prey; AD fusion; input trait library; also called OsPN22154
# T10 sequence: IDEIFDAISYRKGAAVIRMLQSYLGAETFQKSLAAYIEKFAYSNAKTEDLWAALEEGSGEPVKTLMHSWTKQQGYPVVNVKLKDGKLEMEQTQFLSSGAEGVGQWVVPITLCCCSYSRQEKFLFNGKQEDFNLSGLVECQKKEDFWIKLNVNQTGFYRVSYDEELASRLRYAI
# T11: O. sativa Cellulose Synthase Catalytic Subunit, RSW1-Like, prey clone aa 411-489 (Oryza sativa, UniProt A2Y0X2 411-489)
# T11 construct: prey; AD fusion; input trait library; also called OsCS; PN19707
# T11 sequence: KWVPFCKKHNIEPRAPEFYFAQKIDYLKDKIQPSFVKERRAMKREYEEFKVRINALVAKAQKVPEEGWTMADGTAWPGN
# T12: O. sativa Catalase A Isozyme, prey clone aa 332-433 (Oryza sativa, UniProt P0C549 332-433)
# T12 construct: prey; AD fusion; input trait library; also called OsCATA; PN20899
# T12 sequence: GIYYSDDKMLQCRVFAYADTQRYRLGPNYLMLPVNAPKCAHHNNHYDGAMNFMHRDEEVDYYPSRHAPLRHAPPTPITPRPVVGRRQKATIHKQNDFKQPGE
# B1: Elicitor responsive protein, bait fragment aa 50-145 (other)
# chain: PEWNETFMFSVTHNATELIIKLMDSDSGTDDDFVGEATISLEAIYTEGSIPPTVYNVVKEEEYRGEIKVGLTFTPEDDRDRGLSEEDIGGWKQSS
# notes: bait; also called OsERP; PN20696
# B2: O. sativa Calreticulin Precursor, bait fragment aa 250-425 (other)
# chain: PKEIPDPDAKKPEAGADEEDGEWTAPTIRNPEYKGPWKQKKIKNPNYQGKWKPPMIATPDFQDDPYIYAFDSLKSIGIELWQVKSGTLFDNILITDDAALAKTFAEETWAKHKDAEKAAFDEAEKKKEEEEAAKAGEDDDDLDDEDAEDEDKADEKADSDAEDGKDSDDEKHDEL
# notes: bait; text says OsCRTC has 424 aa; also called OsCRTC; PN20544
# B3: O. sativa Chilling-Inducible Protein CAA90866, bait clone aa 100-250 (other)
# chain: GEMTERVAQEDRIPVLKASQDHLKEFISICEALELISEDELEISRQKNLIPWQIEEHRRLHGSSAKRLQKQSSRIKERKERRRRHESSCLSAPIELGGDLLRMMEKEREGMVSYYLIGSIEGFDLLDMLKKEEEIVPAVKEGKRRMVMHLL
# notes: bait; also called OsCAA90866; PN20311
# B4: Receptor-like protein kinase-like PN31085, prey clone aa 378-553 (other)
# chain: NGTISDSLGNLSELSDINLIGNNLTGHVPDSLTSLRLLQKLDLSGNDLTGPLPTFSPSVKVNVTGNLNFNGTAPGSAPSKDTPGSSSSRAPTLPGQGVLPENKKKRSAVVLATTIPVAVSVVALASVCAVLIFRKKRGSVPPNAASVVVHPRENSDPDNLVKIVMVNNDGNSSSTQ
# notes: prey; AD fusion; output trait library
# B5: O. sativa 14-3-3 Protein Homolog GF14-c, bait fragment aa 1-150 (other)
# chain: MSREENVYMAKLAEQAERYEEMVEYMEKVAKTVDVEELTVEERNLLSVAYKNVIGARRASWRIVSSIEQKEEGRGNEEHVTLIKEYRGKIEAELSKICDGILKLLDSHLVPSSTAAESKVFYLKMKGDYHRYLAEFKTGAERKEAAESTM
# notes: bait; also called OsGF14-c; PN12464
# B6: O. sativa Defender Against Apoptotic Death 1, bait clone aa 1-115 (other)
# chain: MPRATSDAKLLIQSLGKAYAATPTNLKIIDLYVVFAVATALIQVVYMGIVGSFPFNSFLSGVLSCIGTAVLAVCLRIQVNKDNKEFKDLPPERAFADFVLCNLVLHLVIMNFLG
# notes: bait; text says OsDAD1 has 114 aa; also called OsDAD1; PN20251
# B7: OsSGT1, bait fragment aa 200-368 (other)
# chain: QMLSVSIEVPGEEPYHFQPRLFSKIIPEKSRYQVLSTKVEIRLAKAEQITWTSLDYDKKPKAVPQKIIPPAESAQRPSYPSSKSKKDWDKLEAEVKKEEKEEKLEGDAALNKFFRDIYSDADEDMRRAMMKSFVESNGTVLSTNWKDVGSKKVEGSPPDGMELKKWEY
# notes: bait; also called PN20285
# B8: Oryza sativa Putative Myosin, prey clone aa 824-935 (other)
# chain: SLARKHRAAIILQRNLKCWLARRYFVNIRKASVVIQSGIRGCLVRRCAGNVDLLNVLREFESKKEAEGDQILIKASFLAELQRRILKAEATVREKDEENEMLQQRLQQYENR
# notes: prey; AD fusion; output trait library; also called OsPN23878
# B9: O. sativa Chitinase, Class III, bait fragment aa 10-200 (enzyme)
# chain: YIGAQFTGVRFSDVPVNPGLSFHFILAFAIDYFMATQSSKPAPANGVFAPYWDTANLSPAAVAAAKAAHPNLSVILALGGDTVQNTGVNATFAPTSSVDAWVRNAADSVSGLIDAYGLDGVDVDYEHFAAGVDTFVECIGRLLTELKARHPNIATSIAPFEHPVVQRYYQPLWRRYAGVIDYVNFQFYGYG
# notes: bait; also called OsCHIB1; PN19651
# How the values were obtained:
# Assay in all cases: yeast two-hybrid
# [1] = target: T1, Pyruvate orthophosphate dikinase-like …
# [2] = target: T2, Pyruvate orthophosphate dikinase-like …
# [3] = target: T3, Soluble Starch Synthase, prey clone aa …
# [4] = target: T4, Soluble Starch Synthase, prey clone aa …
# [5] = target: T5, O. sativa Putative 14-3-3 Protein, prey …
# [6] = target: T6, Elicitor responsive protein, bait …
# [7] = target: T13, O. sativa Chloroplast Ribulose Bisphosphate Carboxylase, Large Chain, prey clone aa 287-462 (Oryza sativa, UniProt P0C510 287-462)
# T13 construct: prey; AD fusion; input trait library; also called OsRBCL; PN23426
# T13 sequence (P0C510 287-462): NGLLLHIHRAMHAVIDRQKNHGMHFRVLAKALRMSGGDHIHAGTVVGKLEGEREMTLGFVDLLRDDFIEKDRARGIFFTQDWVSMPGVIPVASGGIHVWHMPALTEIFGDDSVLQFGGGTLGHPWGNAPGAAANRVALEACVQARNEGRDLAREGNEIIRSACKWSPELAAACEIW
# [8] = target: T7, Beta-Expansin EXPB2, prey clone aa …
# [9] = target: T8, Auxin induced protein-like PN24061, …
# Procedure: (§1) Yeast carrying the target gene construct was combined with yeast carrying the activation domain library. The two yeast strains mated to form diploid yeast and were plated on media that selected for expression of one or more Ga14p-responsive reporter genes. Thus, both hybrid proteins (i.e., the target “bait” protein and the activation domain “prey” protein) were expressed in a yeast reporter strain where an interaction between the test proteins results in transcription of the reporter genes […]. Colonies that arose after incubation were selected for further characterization. The activation domain plasmid was isolated from each colony obtained in the two-hybrid search. The sequence of the insert in this construct was obtained by sequence analysis (e.g., Sanger's dideoxy nucleotide chain termination method; see Ausubel et al., 1988, including updates up to 2002). Thus, the identity of positives obtained from these searches was determined by sequence analysis against proprietary and public (e.g., GENBANK®) nucleic acid and protein databases.
# The rice SGT1 protein shares 74 and 75% amino acid sequence similarity with two Arabidopsis thaliana SGT1 homologs and 45% amino acid sequence similarity with Saccharomyces cerevisiae SGT1. In yeast, SGT1 is required for cell-cycle progression at the G1/S-phase and G2/M-phase transitions. In A. thaliana, SGT1b interacts with Rar1 and mediates disease resistance. Thus, in plants, SGT1 likely controls processes that are fundamental to disease resistance and development. The rice OsSGT1 protein was chosen as a bait for these interaction studies based on its potential relevance to disease resistance and development.
# [10] = target: T9, Hypothetical Protein 003118-3674 …
# [11] = target: T10, Novel Protein PN22154, Similar to A. …
# Procedure: as §1
# (§2) This example provides newly characterized rice proteins interacting with a rice chitinase, class III (OsCHIB1), and with rice cellulose synthase catalytic subunit, RSW1-like (OsCS). An automated, high-throughput yeast two-hybrid assay technology (provided by Myriad Genetics Inc., Salt Lake City, Utah) was used to search for protein interactions with the chitinase and cellulose synthase bait proteins.
# [12] = target: T11, O. sativa Cellulose Synthase Catalytic …
# Procedure: as §1, §2
# [13] = target: T12, O. sativa Catalase A Isozyme, prey …
# Procedure: as §1, §2
binder,measurement,setting,value
B1,binding result,[1],binds
same,binding result,[2],binds
B2,binding result,[3],binds
same,binding result,[4],binds
B3,binding result,[5],binds
B4,binding result,[6],binds
B5,binding result,[7],binds
B6,binding result,[8],binds
B7,binding result,[9],binds
B8,binding result,[10],binds
B9,binding result,[11],binds
same,binding result,[12],binds
same,binding result,[13],binds

# Reference: patent US20060235215A1 (published 2006)
